# Laboratory results from US20100061979A1.
# Tests used:
# FGF-2 [1] = biological target: FGF-2 (UniProt P09038); test: BIAcore, two-state reaction with conformation change model
# FGF-2 [2] = biological target: FGF-2 (UniProt P09038); test: BIAcore
# UniProt P09038, sequence (P09038 143-288 limits assumed): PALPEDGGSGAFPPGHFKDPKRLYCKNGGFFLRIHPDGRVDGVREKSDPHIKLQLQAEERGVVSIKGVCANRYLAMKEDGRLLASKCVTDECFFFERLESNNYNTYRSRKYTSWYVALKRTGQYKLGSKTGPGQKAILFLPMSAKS
substance,measurement,setting,value
sFGFR2-Fc variant 4493 (no Ig-like domain 1) (from UniProt P21802 126-377) (Fc fusion),Kd,FGF-2 [1],1.19 nM
same,Kd,FGF-2 [2],1.19 nM
